PMC2857867

Molecular target: VACV strain WR IFNα/βBP B18 (vaccinia virus strain Western Reserve), P25213
Assay: SPR
Conditions: remark: other sources report otherwise

B1: hIL-29, Q8IU54 20-200 (ligand)
chain: GPVPTSKPTTTGKGCHIGRFKSLSPQELASFKKARDALEESLKLKNWSCSSPVFPGNWDLRLLQVRERPVALEAELALTLKVLEAAAGPALEDVLDQPLHTLHHILSQLQACIQPQPTAGPRPRGRLHHWLHRLQEAPKKESAGCLEASVTFNLFRLLTRDLKYVADGNLCLRTSTHPEST
Kd: 13.5 nM | kon: 193000 M⁻¹ s⁻¹
